Target: SafA_(Ntd1) (Salmonella enterica)
Assay: crystal structure

For SafA_(Ntd1) (domain or fragment), the stoichiometry N was 2.
